Series [1] deals with T1, β-conglutin (Lupinus albus (white lupin)?) (UniProt Q53HY0).
T1 sequence: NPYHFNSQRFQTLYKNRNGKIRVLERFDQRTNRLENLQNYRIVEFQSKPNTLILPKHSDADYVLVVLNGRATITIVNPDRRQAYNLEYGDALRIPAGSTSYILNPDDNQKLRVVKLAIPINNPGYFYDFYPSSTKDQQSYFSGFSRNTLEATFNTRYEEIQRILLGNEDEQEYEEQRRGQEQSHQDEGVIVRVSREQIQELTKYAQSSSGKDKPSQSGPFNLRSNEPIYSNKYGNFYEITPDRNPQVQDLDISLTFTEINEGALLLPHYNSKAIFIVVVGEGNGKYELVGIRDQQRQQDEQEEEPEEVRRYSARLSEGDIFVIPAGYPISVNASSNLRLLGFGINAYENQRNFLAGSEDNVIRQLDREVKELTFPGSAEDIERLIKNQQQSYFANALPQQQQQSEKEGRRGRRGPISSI
Kind of series: ELAA. The conditions noted are these: Binding buffer, salt, pH and temperature not given in the material.

Series [2] addresses T1, β-conglutin (Lupinus albus (white lupin)?). As to the kind of experiment: MST. The conditions noted are these: Binding buffer, salt, pH and temperature not given in the material.
The target is the same in series [3]. Kind of series: BLI. The following applies: 1:1 model, Binding buffer, salt.
Series [4] shares this target. As to the kind of experiment: SPR. The following applies: dA outside the 5' primer region (nt 24-94) replaced by indole-modified dA (dAEIn); Binding buffer, salt, pH and temperature not given in the material.
Where [5] appears, read: dA outside the 5' primer region (nt 24-94) replaced by indole-modified dA (dAEIn).
The mark [6] stands for this setting: all dA = dAEIn, 5' dC carries Cy5.

The Kd is the concentration at which binding is half-saturated. Consider “AGCTCCAGAAGATAAATTACAGGCAAGATCACCGTAGACGCGTCGAGAAGTGTGAGATCCTATGAAATGACCGCAACTAGGATACTATGACCCC [HB7]”, for which, in series [1] (dA outside 5' primer = dAEIn), the Kd was found to be 1.1 nM. On to “AGCTCCAGAAGATAAATTACAGGCCAAGATCTCGCGAGTTCCCAACAGGGCAGAGAGATGCCCGACACCAGTG [HB8_T1]”, for which the Kd in series [2] (dA in nt 24-73 = dAEIn) is 42 nM; in series [3] (dA in nt 24-73 = dAEIn, pH and temperature not given in the material), 0.6 nM. Regarding “AGCTCCAGAAGATAAATTACAGGCCAAGATCTCGCGAGTTCCCAACAGGGCAGAGAGATGCCCGACACCAGTGCAACTAGGATACTATGACCCC [HB8]”, the Kd in series [2] (setting [5]) came to 41 nM; in series [1] (setting [5]), 0.6 nM; in series [4], 92 nM; in series [3] (dA outside the 5' primer region (nt 24-94) replaced by indole-modified dA (dAEIn), pH and temperature not given in the …), 0.9 nM.

On to “AGCTCCAGAAGATAAATTACAGGCCAAGATCTCGCGAGTTCCCAACAGGGCAGAGAGATGCCCGACACCAGTGCAACTAGGATACTATGACCCC [HB8_M1]”, for which, in series [2] (dAEIn as in HB8 except three central positions following the primer, which are natural dA), the equilibrium dissociation constant (Kd) is 134 nM.

“AGCTCCAGAAGATAAATTACAGGCCAAGATCTCGCGAGTTCCCAACAGGGCAGAGAGATGCCCGACACCAGTGCAACTAGGATACTATGACCCC [HB8_M2]”: the Kd in series [2] (dAEIn in nt 24-73, 3' 21 nt with natural dA) came out at 44 nM. “CCAAGATCTCGCGAGTTCCCAACAGGGCAGAGAGATGCCCGACACCAGTG [HB8_T3]”: in series [2] (setting [6]), the Kd amounted to 145 nM.

For “CCAAGATCTCGCGAGTTCCCAACAGGGCAGAGAGATGCCCGACACCAGTGCAACTAGGATACTATGACCCC [HB8_T2]”, the dissociation constant Kd in series [2] (setting [6]) was 256 nM. Consider “GATAAATTACAGGCCAAGATCTCGCGAGTTCCCAACAGGGCAGAGAGATGCCCGACACCAGTGCAACTAGGATACTATGACCCC [HB8_T4]”, for which the Kd in series [2] (dA after the 13 nt primer remainder = dAEIn) stood at 24 nM.
